pEC50: −log10 of the molar value.
What was measured:
[1] = Conjugate stability on SDS gel (heating, reduction, acid treatment); assay type: physicochemical
Procedure: The concentration of PEGylated C1 INH was determined by UV at 280 nm (extinction coefficient of C1 INH was 0.39 mL/mg·cm). Sample at 5 μg or 10 μg was loaded into the gel without sample reduction and heating for electrophoresis. In a separate experiment, the samples were heated at 70° C. for 7 minutes in the presence or absence of 75 mM β-mercaptoethanol in gel buffer. There was no evidence of conjugate breakdown under such conditions. […] The protein bands were visualized after simple blue stain. The density of the image was obtained on Molecular Dynamics. […] There were eight PEG (20 or 30k) strands attached per C1 INH as analyzed SEC-MALS.

C1 esterase [2] = target: T1, C1 esterase (Homo sapiens, UniProt P09871); test: C1 INH activity assay: inhibition of C1 esterase activity; assay type: biochemical; details: for Activity of C1 Esterase inhibition U/mg: 96-well plate, 37° C., kinetic substrate cleavage
T1 sequence (P09871 16-688): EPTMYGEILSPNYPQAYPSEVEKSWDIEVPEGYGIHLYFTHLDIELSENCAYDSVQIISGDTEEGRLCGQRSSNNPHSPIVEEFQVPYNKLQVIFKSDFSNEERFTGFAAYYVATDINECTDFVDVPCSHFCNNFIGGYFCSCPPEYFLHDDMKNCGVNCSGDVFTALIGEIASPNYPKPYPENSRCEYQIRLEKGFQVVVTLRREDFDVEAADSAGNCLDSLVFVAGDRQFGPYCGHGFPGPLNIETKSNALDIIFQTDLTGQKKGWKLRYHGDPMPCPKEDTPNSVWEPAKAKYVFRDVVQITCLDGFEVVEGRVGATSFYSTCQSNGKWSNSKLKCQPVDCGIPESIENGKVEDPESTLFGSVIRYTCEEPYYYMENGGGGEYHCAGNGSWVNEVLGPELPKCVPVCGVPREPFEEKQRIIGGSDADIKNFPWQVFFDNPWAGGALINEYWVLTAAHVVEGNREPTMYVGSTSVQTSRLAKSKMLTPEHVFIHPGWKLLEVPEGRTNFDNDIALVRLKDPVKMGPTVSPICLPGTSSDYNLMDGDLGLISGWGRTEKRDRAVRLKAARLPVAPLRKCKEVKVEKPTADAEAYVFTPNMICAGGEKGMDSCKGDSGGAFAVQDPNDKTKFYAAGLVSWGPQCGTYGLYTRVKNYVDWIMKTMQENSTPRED
Procedure: (§1) C1 INH activity was measured by the inhibition of C1 esterase and kallikrein activities. For the inhibition of C1 esterase activity, samples, standards, and controls were added to 96-well plate, and then C1-esterase was added. After 10 min incubation at 37° C., substrate of C1-eserasse was added. C1-esterase activity for cleavage of the substrate was monitored at 37° C. for 4 minutes kinetically. The higher C1 INH activity results in the lower C1 esterase activity or the lower cleavage rate of substrate. For the inhibition of kallikrein activity, EC50 was used to evaluate PEG-C1 INH activity. Lower EC50 value indicates higher activity of kallikrein inhibition.

kallikrein [3] = target: T2, kallikrein (Homo sapiens, UniProt P03952); test: C1 INH activity assay: inhibition of kallikrein activity; assay type: biochemical; details: lower EC50 = higher activity
Procedure: as §1
Target sequence in this assay (P03952 20-638): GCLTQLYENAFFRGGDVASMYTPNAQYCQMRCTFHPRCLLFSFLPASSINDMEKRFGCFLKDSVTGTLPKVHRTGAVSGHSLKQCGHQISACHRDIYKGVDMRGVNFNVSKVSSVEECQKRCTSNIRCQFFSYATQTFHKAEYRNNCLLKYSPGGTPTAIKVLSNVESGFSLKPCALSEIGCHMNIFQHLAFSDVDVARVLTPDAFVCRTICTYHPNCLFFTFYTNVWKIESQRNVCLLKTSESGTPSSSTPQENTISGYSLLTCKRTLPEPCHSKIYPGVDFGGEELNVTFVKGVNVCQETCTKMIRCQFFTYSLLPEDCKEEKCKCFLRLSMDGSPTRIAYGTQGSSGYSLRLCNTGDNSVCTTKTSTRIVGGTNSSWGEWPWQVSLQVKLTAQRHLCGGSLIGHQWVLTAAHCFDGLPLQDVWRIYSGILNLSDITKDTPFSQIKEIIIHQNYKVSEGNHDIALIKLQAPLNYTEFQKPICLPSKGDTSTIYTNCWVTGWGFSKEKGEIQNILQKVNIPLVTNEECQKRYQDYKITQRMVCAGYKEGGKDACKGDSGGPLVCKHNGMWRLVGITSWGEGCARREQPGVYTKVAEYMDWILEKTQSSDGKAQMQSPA

C1 esterase [4] = target: T3, C1 esterase (UniProt P09871); test: cell-based or functional assay
T3 sequence (looked up): T1 sequence (P09871 16-688)

kallikrein [5] = target: T2, kallikrein; test: cell-based or functional assay
Target sequence in this assay (P03952 20-638 limits assumed): as the sequence (P03952 20-638) above

Chain of PEG-20k-Glycan-C1 INH (60 mg scale) (P05155 23-500 limits assumed): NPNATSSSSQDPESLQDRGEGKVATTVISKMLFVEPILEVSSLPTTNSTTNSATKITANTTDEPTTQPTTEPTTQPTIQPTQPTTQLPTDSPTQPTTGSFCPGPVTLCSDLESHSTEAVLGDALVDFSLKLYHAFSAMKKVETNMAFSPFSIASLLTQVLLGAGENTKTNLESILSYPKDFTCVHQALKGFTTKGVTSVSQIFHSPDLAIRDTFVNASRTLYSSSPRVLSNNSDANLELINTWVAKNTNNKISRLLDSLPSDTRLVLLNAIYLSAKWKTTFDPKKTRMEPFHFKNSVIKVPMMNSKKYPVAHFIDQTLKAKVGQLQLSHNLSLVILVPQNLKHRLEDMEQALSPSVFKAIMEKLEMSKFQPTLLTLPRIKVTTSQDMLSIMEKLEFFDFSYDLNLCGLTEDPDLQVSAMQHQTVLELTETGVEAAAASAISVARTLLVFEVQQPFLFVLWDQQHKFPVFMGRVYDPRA
Chain of C1 Esterase Inhibitor (C1 INH), native (P05155 23-500 limits assumed): as above
Chain of PEG-20k-Glycan-C1 INH (5 mg scale) (P05155 23-500 limits assumed): as above

| Substance | Activity of C1 Esterase inhibition U/mg (C1 esterase [2]) [U/mg] | pEC50 (kallikrein [3]) | Activity of C1 Esterase inhibition, % C1 INH activity (C1 esterase [4]) [%] | Activity of C1 Esterase inhibition, U/mg (C1 esterase [4]) [U/mg] | Activity of Kallikrein inhibition, % C1 INH activity (kallikrein [5]) [%] | Activity of Kallikrein inhibition, EC50 (kallikrein [5]) [nM] | further results |
| --- | --- | --- | --- | --- | --- | --- | --- |
| PEG-20k-Glycan-C1 INH (60 mg scale): C1 INH oxidized with periodate at glycan and conjugated with PEG-hydrazide 20k; eight PEG strands per C1 INH | 5.1 | 6.52 |  |  |  |  | Stability of conjugate under acidic conditions ([1]; 0.1% TFA or sodium acetate, pH 4.7): releasable; Stability of conjugate to heating and reducing at neutral pH ([1]; 70° C. for 7 minutes, with or without 75 mM β-mercaptoethanol, SDS gel): stable; % C1 INH activity on C1 esterase inhibition, small scale (C1 esterase [2]; small scale batch, relative to native C1 INH): 97% |
| C1 Esterase Inhibitor (C1 INH), native (from UniProt P05155 23-500) |  |  | 100 | 7 | 100 | 200 |  |
| C1 INH: C1 Esterase Inhibitor obtained from Athens Research & Technology, MW 73000 Da by MALDI; unmodified reference protein | 7.0 | 6.70 |  |  |  |  |  |
| PEG-20k-Glycan-C1 INH (5 mg scale): Same PEG-20k-hydrazide glycan conjugate of C1 INH prepared at 5 mg scale; PEG number pending | 6.6 |  |  |  |  |  |  |
| PEG-20k-Glycan-C1 INH (5 mg scale) (from UniProt P05155 23-500) |  |  | 94 | 6.6 |  |  | % C1 INH activity on C1 esterase inhibition (small scale) (C1 esterase [4]): 97% |
| PEG-20k-Glycan-C1 INH (60 mg scale) (from UniProt P05155 23-500) |  |  | 73 | 5.1 | 67 | 300 |  |

From patent publication US20140315826A1, “POLYMERIC CONJUGATES OF C-1 INHIBITORS” (Belrose Pharma, Inc., priority 2012, published 2014)
